Results as given in patent publication US20260258137A1.

Experiments:
[1] = target: human PD-L1 on CHO-K1 cells (CHO-K1/hPD-L1, Nanjing Genscript, M00543) (human) (UniProt Q9NZQ7); assay: flow cytometry on CHO-K1/hPD-L1 cells
[2] = target: cynomolgus PD-L1 on CHO-K1 cells (CHO-K1/cynoPD-L1, Nanjing Genscript, M00573) (cynomolgus) (UniProt G7PSE7); assay: flow cytometry on CHO-K1/cynoPD-L1 cells
[3] = target: human PD-L1 on CHO-K1 cells (CHO-K1/hPD-L1, Nanjing Genscript, M00543) (human) (UniProt Q9NZQ7); assay: flow cytometry competition: biotin-hPD-1 binding to CHO-K1/hPD-L1 cells

Chain of human PD-L1 on CHO-K1 cells (CHO-K1/hPD-L1, Nanjing Genscript, M00543) (human) (Q9NZQ7 19-290, one chain of several): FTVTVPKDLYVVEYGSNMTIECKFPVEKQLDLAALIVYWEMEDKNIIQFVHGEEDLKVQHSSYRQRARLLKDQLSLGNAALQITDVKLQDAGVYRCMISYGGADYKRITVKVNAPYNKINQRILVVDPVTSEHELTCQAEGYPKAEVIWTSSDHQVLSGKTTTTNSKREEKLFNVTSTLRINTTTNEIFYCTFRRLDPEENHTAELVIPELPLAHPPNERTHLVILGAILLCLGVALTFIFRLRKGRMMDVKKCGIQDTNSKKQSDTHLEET
Chain of cynomolgus PD-L1 on CHO-K1 cells (CHO-K1/cynoPD-L1, Nanjing Genscript, M00573) (cynomolgus) (G7PSE7 entry or part of it limits assumed, one chain of several): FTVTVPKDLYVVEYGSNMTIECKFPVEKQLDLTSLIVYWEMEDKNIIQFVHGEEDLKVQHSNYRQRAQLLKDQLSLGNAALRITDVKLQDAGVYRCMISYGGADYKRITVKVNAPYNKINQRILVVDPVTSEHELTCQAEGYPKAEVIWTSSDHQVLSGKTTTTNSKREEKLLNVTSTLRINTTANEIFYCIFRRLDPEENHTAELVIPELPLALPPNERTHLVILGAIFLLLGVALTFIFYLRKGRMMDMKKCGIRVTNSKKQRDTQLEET

MFI maximum value [1]: 305 MFI
MFI maximum value [2]: 935 MFI
Maximum inhibition rate (%) [3]: 0.68%
Substance: isotype antibody hIgG1 iso
